In PMC3130806 one finds Kd data, which are given here for 3 substances.

The target in test [1] is FITC-labeled native contortrostatin (Agkistrodon contortrix contortrix). Put plainly: fluorescence polarisation.
Test [2] deals with FITC-labeled vicrostatin (Agkistrodon contortrix contortrix | not stated). Put plainly: fluorescence polarisation.

pKd: −log10 of the molar value.

Regarding “soluble recombinant α5β1 integrin (from UniProt P08648 42-1049; P05556 21-728) (receptor)”, the pKd in test [1] was 6.72; in test [2], 7.82.
On to “purified soluble αvβ5 integrin (from UniProt P06756 31-1048; P18084 24-719) (receptor)”, for which the pKd was 7.71 in test [1] and 7.39 in test [2].
“purified soluble αvβ3 integrin (from UniProt P06756 31-1048; P05106 27-718) (receptor)”: the pKd in test [1] was 8.18; in test [2] it was 8.13.
